Data published in article PMC10815899.

Legend:
[1] = target: cytoplasmic Nakaseomyces glabratus glyceraldehyde 3-phosphate dehydrogenase (N. glabratus (endogenous in CBS138 / ATCC 2001)); experiment: BLI; Octet N1; GAPDH amine-coupled on an AR2G biosensor; VTR or HPG 31–500 nM in solution; Langmuir 1:1 model
[2] = target: recombinant Candida albicans glyceraldehyde 3-phosphate dehydrogenase (C. albicans) (UniProt Q5ADM7); experiment: as above
[3] = target: GAPDH present on the surface of N. glabratus cells (N. glabratus (endogenous in CBS138 / ATCC 2001)); experiment: whole-cell binding assay with antibody blocking (SA-HRP/TMB); C. albicans hyphae in MaxiSorp wells (10^6 cells per well) or N. glabratus cells in tubes (3 × 10^7 per tube), pre-incubated with polyclonal anti-ScGAPDH antibody (1 µg/mL), then 150 nM biotin-labeled VTR or HPG, 1 h at 37 °C
[4] = target: GAPDH on the surface of C. albicans cells (C. albicans (endogenous in ATCC 10231)) (UniProt Q5ADM7); experiment: as above
[5] = target: GAPDH present on the surface of N. glabratus cells (N. glabratus (endogenous in CBS138 / ATCC 2001)); experiment: SEC; Superdex 200 HR 10/50, calibrated with molecular mass standards, 0.5 mL/min; buffer 20 mM Tris-HCl pH 6.7 (methods) or 50 mM NaH2PO4, 150 mM NaCl pH 7.0
[6] = target: cytoplasmic Nakaseomyces glabratus glyceraldehyde 3-phosphate dehydrogenase (N. glabratus (endogenous in CBS138 / ATCC 2001)); experiment: SPR; Biacore 3000; GAPDH amine-coupled on a CM5 chip; VTR 10–500 nM, 30 µL/min, 25 °C, HBS buffer (10 mM HEPES, 150 mM NaCl, 0.005% P20, pH 7.4); Langmuir 1:1 model with baseline drift
[7] = target: recombinant Candida albicans glyceraldehyde 3-phosphate dehydrogenase (C. albicans) (UniProt Q5ADM7); experiment: as above
[8] = target: epithelial adhesin 6 of N. glabratus (N. glabratus (endogenous)) (UniProt Q6FX55); experiment: BLI; Octet N1; Epa6 immobilised on an AR2G biosensor; NgGAPDH 100–1000 nM; Langmuir 1:1 model
[9] = target: cytoplasmic Nakaseomyces glabratus glyceraldehyde 3-phosphate dehydrogenase (N. glabratus (endogenous in CBS138 / ATCC 2001)); experiment: SEC; Superdex 200 HR 10/50, calibrated with molecular mass standards, 0.5 mL/min; buffer 20 mM Tris-HCl pH 6.7 (methods) or 50 mM NaH2PO4, 150 mM NaCl pH 7.0
[10] = target: vitronectin (Homo sapiens) (UniProt P04004); conditions: cited from earlier work
Sequence of vitronectin (Homo sapiens) (P04004 399-478): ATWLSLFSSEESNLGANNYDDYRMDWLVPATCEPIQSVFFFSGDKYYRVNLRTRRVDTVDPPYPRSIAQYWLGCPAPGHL

Substance	Kd [1]	koff [1]	kon [1]	Kd [2]	koff [2]	kon [2]	percent decrease of binding to cells with anti-ScGAPDH antibody [3]	percent decrease of binding to cells with anti-ScGAPDH antibody [4]	other results
human plasminogen (natural protein)	8.69 nM	0.000649 s⁻¹	74600 M⁻¹ s⁻¹	150 nM	0.00496 s⁻¹	33000 M⁻¹ s⁻¹	36%	19%	–
GAPDH present on the surface of N. glabratus cells (enzyme)	–	–	–	–	–	–	–	–	stoichiometry N [5]: 4
human vitronectin (natural protein)	33.9 nM	0.00172 s⁻¹	50700 M⁻¹ s⁻¹	20.6 nM	0.000799 s⁻¹	38900 M⁻¹ s⁻¹	12%	16%	Kd [6]: 48 nM; koff [6]: 0.00183 s⁻¹; kon [6]: 38100 M⁻¹ s⁻¹; Kd [7]: 44.2 nM; koff [7]: 0.000619 s⁻¹; kon [7]: 14000 M⁻¹ s⁻¹
cytoplasmic Nakaseomyces glabratus glyceraldehyde 3-phosphate dehydrogenase (enzyme)	–	–	–	–	–	–	–	–	Kd [8]: 7 to 14 nM; stoichiometry N [9]: 4
enolase (from UniProt P30575)	–	–	–	–	–	–	–	–	Kd [10]: 40 nM
